From publication PMC10415273

B1: endogenous mouse IRF3, P70671 1-419 (natural protein)
chain: METPKPRILPWLVSQLDLGQLEGVAWLDESRTRFRIPWKHGLRQDAQMADFGIFQAWAEASGAYTPGKDKPDVSTWKRNFRSALNRKEVLRLAADNSKDPYDPHKVYEFVTPGARDFVHLGASPDTNGKSSLPHSQENLPKLFDGLILGPLKDEGSSDLAIVSDPSQQLPSPNVNNFLNPAPQENPLKQLLAEEQWEFEVTAFYRGRQVFQQTLFCPGGLRLVGSTADMTLPWQPVTLPDPEGFLTDKLVKEYVGQVLKGLGNGLALWQAGQCLWAQRLGHSHAFWALGEELLPDSGRGPDGEVHKDKDGAVFDLRPFVADLIAFMEGSGHSPRYTLWFCMGEMWPQDQPWVKRLVMVKVVPTCLKELLEMAREGGASSLKTVDLHISNSQPISLTSDQYKAYLQDLVEDMDFQATGNI
B2: endogenous IRF3, Q14653 1-427 (natural protein)
chain: MGTPKPRILPWLVSQLDLGQLEGVAWVNKSRTRFRIPWKHGLRQDAQQEDFGIFQAWAEATGAYVPGRDKPDLPTWKRNFRSALNRKEGLRLAEDRSKDPHDPHKIYEFVNSGVGDFSQPDTSPDTNGGGSTSDTQEDILDELLGNMVLAPLPDPGPPSLAVAPEPCPQPLRSPSLDNPTPFPNLGPSENPLKRLLVPGEEWEFEVTAFYRGRQVFQQTISCPEGLRLVGSEVGDRTLPGWPVTLPDPGMSLTDRGVMSYVRHVLSCLGGGLALWRAGQWLWAQRLGHCHTYWAVSEELLPNSGHGPDGEVPKDKEGGVFDLGPFIVDLITFTEGSGRSPRYALWFCVGESWPQDQPWTKRLVMVKVVPTCLRALVEMARVGGASSLENTVDLHISNSHPLSLTSDQYKAYLQDLVEGMDFQGPGES

How the values were obtained:
[1] = molecular target: T1, endogenous mouse IRF3 (mouse (endogenous in peritoneal macrophages)), P70671; test: native gel or EMSA; S5 fractions of stimulated cells on 9% native PAGE (0.4% Doc-Na in running buffer, 4 °C); immunoblot of IRF3; conditions: remark: other sources report otherwise
T1 chain: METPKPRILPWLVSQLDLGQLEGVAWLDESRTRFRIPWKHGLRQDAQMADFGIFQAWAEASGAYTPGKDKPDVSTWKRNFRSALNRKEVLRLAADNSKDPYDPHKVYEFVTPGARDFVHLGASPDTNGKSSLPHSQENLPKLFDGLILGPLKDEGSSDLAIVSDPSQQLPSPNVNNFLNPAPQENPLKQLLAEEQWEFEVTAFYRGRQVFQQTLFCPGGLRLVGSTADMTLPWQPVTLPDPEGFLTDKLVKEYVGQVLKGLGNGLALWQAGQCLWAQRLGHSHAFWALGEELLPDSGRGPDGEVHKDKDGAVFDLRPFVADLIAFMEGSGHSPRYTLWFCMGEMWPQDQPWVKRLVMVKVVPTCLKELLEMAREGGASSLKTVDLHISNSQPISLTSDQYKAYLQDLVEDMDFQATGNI

[2] = molecular target: T2, endogenous IRF3 (human (endogenous in HEK293)), Q14653; test: as above; conditions: remark: other sources report otherwise
T2 chain: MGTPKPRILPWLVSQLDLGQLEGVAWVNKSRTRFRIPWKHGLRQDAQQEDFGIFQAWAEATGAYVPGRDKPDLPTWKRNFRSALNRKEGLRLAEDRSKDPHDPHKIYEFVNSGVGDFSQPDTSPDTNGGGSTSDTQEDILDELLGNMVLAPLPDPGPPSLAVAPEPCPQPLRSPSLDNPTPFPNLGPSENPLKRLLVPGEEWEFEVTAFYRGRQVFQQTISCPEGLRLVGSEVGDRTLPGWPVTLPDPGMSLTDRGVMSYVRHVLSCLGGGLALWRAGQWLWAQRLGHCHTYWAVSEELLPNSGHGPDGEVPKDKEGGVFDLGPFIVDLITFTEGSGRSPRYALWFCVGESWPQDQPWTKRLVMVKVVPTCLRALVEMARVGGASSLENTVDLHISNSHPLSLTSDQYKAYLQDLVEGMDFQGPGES

| Binder | stoichiometry N [1] | stoichiometry N [2] |
| --- | --- | --- |
| B1 | 2 |  |
| B2 |  | 2 |
